Test results published in US20240024520A1, “AUTONOMOUS KNOB DOMAIN PEPTIDES” (UCB BIOPHARMA SRL, priority 2020, published 2024).

Target: C5 (Homo sapiens, UniProt P01031)
Test: Monoclonal phage screening ELISA, human C5
Assay type: binding
Settings: anti-C5 ultralong CDR-H3; binder = OD>0.2 AU
Protocol: For the C5 libraries, a single round of enrichment was performed with either human or rat C5 protein. […] Phage were blocked for 30 minutes. Biotinylated antigen was added to the blocked phage at a concentration of 100 nM and incubated at room temperature with mixing.
Colonies were picked into a 96-well culture plate containing selective medium 2TY supplemented with 1% Glucose and 100 μg/ml Carbenicillin and was incubated at 37° C. until wells reached mid-log phase of growth prior to addition of M13K07 helper phage. The block was incubated without shaking for 1 hour to achieve infection and phage production using continued culture in selective media supplemented with 50 μg/ml Kanamycin and 100 μg/ml Carbenicillin.
Binding to antigen was assessed by monoclonal phage ELISA, 96-well flat bottom Nunc MaxiSorp plates (Thermofisher) were coated with a 2.5 μg/ml solution of human, mouse, or rat serum albumin, human C5 or mouse C5 diluted with PBS, and left overnight at 4° C. Negative control plate and Anti-myc tag plate were also prepared.
Monoclonal phage rescue supernatants were blocked with an equal volume of a 2% milk (w/v) in PBS, for serum albumin proteins, or 2% BSA and 2% milk (w/v) in PBS solution. The coating solution was removed from coated Nunc plates and each plate was blocked with 1% BSA in PBS (for C5 libraries) or 1% milk powder (for albumin library). Both phage and Nunc plates were blocked for 1 hour at room temperature. Nunc plates were washed using a 96-well microplate washer (BioTek) with a PBS solution contain 0.1% Tween20 (Sigma Aldrich). 100 of blocked phage solution was added to each well of Nunc MaxiSorp plate and left shaking at room temperature for 1 hour. Plates were washed and dried as previously described. 100 of an Anti-M13-Horse radish peroxidase conjugated antibody (GE Healthcare) diluted (1:5,000) in a 1% BSA or milk solution was added to each well and left shaking at room temperature for 1 hour. Plates were washed again and 50 μL of TMB solution (Merck Millipore) was added to each well. Plates were left shaking for 10 minutes. Absorbance was measured at 630 nm and 490 nm. Binding signals were obtained where Absorbance at 630 nm was >3-times the signal upon irrelevant antigen.
By monoclonal phage ELISA the following ultralong CDR-H3 sequences were identified as binders (OD>0.2 AU): […]

Sequence of C5 (P01031 19-1676): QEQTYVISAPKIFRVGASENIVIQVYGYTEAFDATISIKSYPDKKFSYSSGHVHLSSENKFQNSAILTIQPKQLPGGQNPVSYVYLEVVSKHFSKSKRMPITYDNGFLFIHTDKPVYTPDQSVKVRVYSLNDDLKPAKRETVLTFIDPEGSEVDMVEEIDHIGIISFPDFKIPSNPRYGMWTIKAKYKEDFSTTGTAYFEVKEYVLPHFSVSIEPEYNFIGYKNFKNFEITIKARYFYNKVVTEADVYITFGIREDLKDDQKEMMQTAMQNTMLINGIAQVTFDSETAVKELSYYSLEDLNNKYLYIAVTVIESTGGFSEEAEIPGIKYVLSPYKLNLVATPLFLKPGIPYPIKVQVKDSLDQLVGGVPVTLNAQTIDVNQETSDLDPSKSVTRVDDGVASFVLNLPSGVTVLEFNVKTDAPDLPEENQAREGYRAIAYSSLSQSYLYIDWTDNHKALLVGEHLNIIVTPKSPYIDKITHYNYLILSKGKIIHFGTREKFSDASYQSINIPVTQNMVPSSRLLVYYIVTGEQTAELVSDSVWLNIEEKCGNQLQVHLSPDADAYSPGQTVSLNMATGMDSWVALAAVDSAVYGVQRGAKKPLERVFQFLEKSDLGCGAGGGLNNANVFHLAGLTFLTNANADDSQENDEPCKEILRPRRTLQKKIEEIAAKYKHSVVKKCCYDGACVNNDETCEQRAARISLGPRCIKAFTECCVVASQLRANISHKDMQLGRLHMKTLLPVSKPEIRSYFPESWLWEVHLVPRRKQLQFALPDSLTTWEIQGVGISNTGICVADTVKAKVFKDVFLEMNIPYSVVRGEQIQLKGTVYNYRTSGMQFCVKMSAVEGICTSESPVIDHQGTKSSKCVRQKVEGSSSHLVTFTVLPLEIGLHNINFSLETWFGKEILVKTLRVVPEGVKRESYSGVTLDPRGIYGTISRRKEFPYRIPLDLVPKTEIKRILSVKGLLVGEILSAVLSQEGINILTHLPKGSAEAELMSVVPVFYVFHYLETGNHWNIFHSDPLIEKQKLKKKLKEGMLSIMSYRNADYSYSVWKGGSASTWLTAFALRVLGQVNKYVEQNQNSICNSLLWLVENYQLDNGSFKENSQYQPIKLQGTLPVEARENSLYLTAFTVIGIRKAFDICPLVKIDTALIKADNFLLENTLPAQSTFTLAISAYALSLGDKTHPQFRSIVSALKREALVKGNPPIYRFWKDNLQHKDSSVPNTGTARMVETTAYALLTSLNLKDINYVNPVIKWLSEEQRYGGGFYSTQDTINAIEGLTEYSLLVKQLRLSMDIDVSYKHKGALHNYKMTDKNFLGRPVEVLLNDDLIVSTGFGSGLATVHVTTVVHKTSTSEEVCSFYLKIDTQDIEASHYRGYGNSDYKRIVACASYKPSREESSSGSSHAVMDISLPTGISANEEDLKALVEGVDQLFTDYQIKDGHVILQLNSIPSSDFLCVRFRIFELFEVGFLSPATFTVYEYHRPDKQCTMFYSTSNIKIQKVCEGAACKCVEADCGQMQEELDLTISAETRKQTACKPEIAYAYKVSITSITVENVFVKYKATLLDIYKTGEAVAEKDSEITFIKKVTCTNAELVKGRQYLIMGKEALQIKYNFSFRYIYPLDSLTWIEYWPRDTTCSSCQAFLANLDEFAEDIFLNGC

Specificity, Human:
541 (TTVHQRTIKSGCPPGYKSGVDCSPGSECKWGCYAVDGRRYGGYGADSGVGSTYTHEYHVE; Anti-C5 ultralong CDR-H3) [compound 541]
543 (TTVHQRTLKNRNCPDGYGYQRHCTVGEDCTDHCCDAYGLCTSYTYTYTYEWYVD; Anti-C5 ultralong CDR-H3) [compound 543]
544 (TTVHQRTLKNRNCPDGYGYQRHCTVGEDCTDSCCDRYGLCTTSTETYTYELYVE; Anti-C5 ultralong CDR-H3) [compound 544]
545 (TTVHQRTLKNRNRPEGYGYQRHCTVGEECTDSCCDRYGLCTTSTETYTYEWYVD; Anti-C5 ultralong CDR-H3) [compound 545]
546 (TTVHQRTKKTCPLGYDLNDRCDHFNTCRVEECCKNGVVNAYGICEYAGGSATYTYEWYVE; Anti-C5 ultralong CDR-H3) [compound 546]
547 (TTVHQRTLKNRNCPDGYGYQRHCTVGEDCTDSCCDRYGLCTTSTETYTYEFYVN; Anti-C5 ultralong CDR-H3) [compound 547]
548 (TTVHQRTLKNRNCPDGYGYQRHCTVGEDCTDSCCDRYGLCTTSTETYTYEWYVD; Anti-C5 ultralong CDR-H3) [compound 548]
549 (TTVHQRTLKNRNCPDGYGYQRHCTVGEDCTDSCCDRYGLCTTSTETYTYEWYVD; Anti-C5 ultralong CDR-H3) [compound 549]
550 (TTVHQRTLHNRNCPDGYGYQRHCTVGEDCTERCCDNYGLCTSYTDTYTYEFYVN; Anti-C5 ultralong CDR-H3) [compound 550]
559 (TTVHQRTAKRCPSNNEDATACRYSSVCGDYVCEGLSESYAQGWGACRRYACRDSYEWYVD; Anti-C5 ultralong CDR-H3) [compound 559]
560 (TTVHQRTAKRCPSNNEDATACRYSSVCGDYVCEGLSESYAQGWGACRRYACRDSYEWYVD; Anti-C5 ultralong CDR-H3) [compound 560]
561 (TTVHQQTNKRRQNCPDGYEYNGFCTPDGGCSRVSNWGWDRSCISPTYTYTYEWYVE; Anti-C5 ultralong CDR-H3) [compound 561]
562 (TTVHQQTTKKSSCPDGYCDCNGCGYGNGCSRGGCFDFRLYSGYSADIVVSTTYTHDFYID; Anti-C5 ultralong CDR-H3) [compound 562]
565 (TTVHQRTIKSGCPPGYKSGVDCSPGSECKWGCYAVDGRRYGGYGADSGVGSTYTHELYVE; Anti-C5 ultralong CDR-H3) [compound 565]
566 (TTVVQRTKRTCPEGLVYNSDQSRCCAADSGVCWEYWRGERVTRGFTYEWYVD; Anti-C5 ultralong CDR-H3) [compound 566]
567 (TTVHQRTTKRCPSNNEDATACRYSSVCGDYVCEGLSESYAQGWGACRRYACRDSYEWYVD; Anti-C5 ultralong CDR-H3) [compound 567]
569 (TTVHQRTAKRCPSNNEEATACRYSSVCGDYVCEGLSESYAQGWGACRRYACRDSYEWYVD; Anti-C5 ultralong CDR-H3) [compound 569]
570 (TTVHQRTIKSGCPPGYKSGVDCSPGSEYKWGCYAVDGRRYGGYGADSGVGSTYTHEFYVN; Anti-C5 ultralong CDR-H3) [compound 570]
571 (TTVHQRTIKSGCPPGYKSGVDCSPGSECKWGCYAVDGRRYGGYGADSGVGSTYTHEWYVD; Anti-C5 ultralong CDR-H3) [compound 571]

Same assay, conditions: knob domain of the anti-C5 ultralong CDR-H3

Specificity, Human:
579 (HCSPGSDCSWGCYDRDDRRVDGAGADSGLGSTST; Anti-C5 ultralong CDR-H3 knob domain) [compound 579]
580 (SCPDGYKDNRFCSPDGGCSAVSHWGWDSSCVS; Anti-C5 ultralong CDR-H3 knob domain) [compound 580]
581 (HCSPGSDCSWGCYDKDDRRVDGAGVASGLGST; Anti-C5 ultralong CDR-H3 knob domain) [compound 581]
582 (GCPPGYKSGVDCSPGSECKWGCYAVDGRRYGGYGADSGVGST; Anti-C5 ultralong CDR-H3 knob domain) [compound 582]
583 (SCPDGYHFIEPCHSGLCWREGACNGDGICANGLGRCRTVSETST; Anti-C5 ultralong CDR-H3 knob domain) [compound 583]
584 (GCPTGTVAGVHCSPGSDCSWGCYDKDDRRVDGAGAASGLGST; Anti-C5 ultralong CDR-H3 knob domain) [compound 584]
585 (RCPDGCFLSSYCPVGYACSGFACCDCGGYDYAGGVRGGRCSVRSTT; Anti-C5 ultralong CDR-H3 knob domain) [compound 585]
586 (NCPDGYKYNGFCTPDGGCSRVSSWGWDRSCISPT; Anti-C5 ultralong CDR-H3 knob domain) [compound 586]
587 (GCPPGTVAGVHCSPGSDCSWGCYDRDDRRVDGAGADSGLGSTST; Anti-C5 ultralong CDR-H3 knob domain) [compound 587]
588 (SCPDGYHFIEPCHSGLCWREGACNGDGICANGLGRCRTVSETST; Anti-C5 ultralong CDR-H3 knob domain) [compound 588]
589 (GCPTGTVAGVHCSPGSDCSWGCYDADDRRVDGYGADSGVGSP; Anti-C5 ultralong CDR-H3 knob domain) [compound 589]
590 (NCPDGYGYQRHCTVGEDCTDHCCDAYGLCTS; Anti-C5 ultralong CDR-H3 knob domain) [compound 590]
591 (NCPDGYGYQRHCTVGEDCTDSCCDRYGLCTTSTET; Anti-C5 ultralong CDR-H3 knob domain) [compound 591]
592 (HCTVGEECTDSCCDRYGLCTTSTET; Anti-C5 ultralong CDR-H3 knob domain) [compound 592]
593 (NCPDGYGYQRHCTVGEDCTERCCDNYGLCTSYTDT; Anti-C5 ultralong CDR-H3 knob domain) [compound 593]
600 (RCPSNNEDATACRYSSVCGDYVCEGLSESYAQGWGACRRYACRDS; Anti-C5 ultralong CDR-H3 knob domain) [compound 600]
601 (NCPDGYEYNGFCTPDGGCSRVSNWGWDRSCISPT; Anti-C5 ultralong CDR-H3 knob domain) [compound 601]
602 (SCPDGYCDCNGCGYGNGCSRGGCFDFRLYSGYSADIVVSTT; Anti-C5 ultralong CDR-H3 knob domain) [compound 602]
603 (SCPDGWGHSDDCNCACSANAYACCKRDWLLPGPSCECSTYCVS; Anti-C5 ultralong CDR-H3 knob domain) [compound 603]
604 (SCPDGWSDCHGSCDGVGCTGSDCVRYNARGYGRHACSG; Anti-C5 ultralong CDR-H3 knob domain) [compound 604]
605 (GCPPGYKSGVDCSPGSECKWGCYAVDGRRYGGYGADSGVGST; Anti-C5 ultralong CDR-H3 knob domain) [compound 605]
606 (TCPEGLVYNSDQSRCCAADSGVCWEYWRGERVTRGFT; Anti-C5 ultralong CDR-H3 knob domain) [compound 606]
607 (TCPDGYSYSEGCGKGDDCGGVHCCANGGVTCWYRHCCSTGTDT; Anti-C5 ultralong CDR-H3 knob domain) [compound 607]
608 (RCPSNNEEATACRYSSVCGDYVCEGLSESYAQGWGACRRYACRDS; Anti-C5 ultralong CDR-H3 knob domain) [compound 608]
609 (SGCPPGYKSGVDCSPGSEYKWGCYAVDGRRYGGYGADSGVGST; Anti-C5 ultralong CDR-H3 knob domain) [compound 609]
